Strand notation (5' to 3'): a small letter for the sugar, then the base; units joined by * are phosphorothioate-linked, units joined directly phosphodiester-linked; [ ] holds rarer units or linkages, { } end groups; capitals alone tell only the bases. m = 2'-O-methyl; r = 2'-OH (RNA)
What was measured:
murine TTR = test: Liver editing in mice with murine TTR dosed with LNP formulations (Table 29); format: in vivo, mouse; conditions: wild type CD-1 mice; 1, 0.3, 0.1, 0.03, or 0.01 mg/kg; FIG. 15A
Experimental: (§1) Unless otherwise noted, CD-1 female mice, ranging from 6-10 weeks of age were used in each study. Animals were weighed and grouped according to body weight for preparing dosing solutions based on group average weight. LNPs were dosed via the lateral tail vein in a volume of 0.2 mL per animal (approximately 10 mL per kilogram body weight). […] Body weight was measured at twenty-four hours post-administration, and animals were euthanized at various time points by exsanguination via cardiac puncture under isoflourane anesthesia. Blood was collected into serum separator tubes or into tubes containing buffered sodium citrate for plasma as described herein. […]
(§2) To quantitatively determine the efficiency of editing at the target location in the genome, sequencing was utilized to identify the presence of insertions and deletions introduced by gene editing. […]
(§3) Additional PCR was performed per the manufacturer's protocols (Illumina) to add chemistry for sequencing. […] The reads were aligned to a reference genome (e.g., the human reference genome (hg38), the cynomologus reference genome (mf5), the rat reference genome (rn6), or the mouse reference genome (mm10)) after eliminating those having low quality scores. […]

HuTTR V30M locus = test: Liver editing in humanized transgenic V30M mouse model of hereditary ATTR amyloidosis; format: in vivo; conditions: V30M humanized mice, single 1 mg/kg dose of LNP
Experimental: as §1, §2, §3

human TTR protein = test: Human TTR protein ELISA in serum and cerebrospinal fluid of V30M mice; format: in vivo, mouse; conditions: V30M humanized mice, single 1 mg/kg dose, 8 weeks post treatment
Experimental: (§4) A well-established humanized transgenic mouse model of hereditary ATTR amyloidosis that expresses the V30M pathogenic mutant form of human TTR protein was used in this Example. This mouse model recapitulates the TTR deposition phenotype in tissues observed in ATTR patients, including within the peripheral nervous system and gastrointestinal (GI) tract (See Santos et al., Neurobiol Aging. 2010 February; 31(2):280-9).
(§5) Mice (aged approximately 4-5 months) were dosed with LNP formulations prepared using the cross-flow and TFF procedures as described in Example 1. The LNPs were formulated with an N:P ratio of 6.0 and contained Lipid A, Cholesterol, DSPC, and PEG2k-DMG in a 50:38:9:2 molar ratio, respectively. The LNPs contained Cas9 mRNA (SEQ ID NO: 1) and either G000481 (“G481”) or a non-targeting control guide G000395 (“G395”; SEQ ID NO: 273), in a 1:1 ratio of gRNA:mRNA by weight.
(§6) Mice were injected via the lateral tail vein as described in Example 1 with a single 1 mg/kg (of total RNA content) dose of LNP with an n=10/group. […] Human TTR protein levels were measured in serum and cerebrospinal fluid (CSF) by ELISA as previously described by Butler et al., Amyloid. […] Other tissues (stomach, colon, sciatic nerve, dorsal root ganglion (DRG)) were collected and processed for semi-quantitative immunohistochemistry as previously described by Gonsalves et al., Amyloid. […]

[1] = tested on: TTR protein amyloid deposition; test: Semi-quantitative immunohistochemistry of TTR in stomach, colon, sciatic nerve, DRG of V30M mice; format: in vivo, mouse; conditions: 8 weeks post-treatment, single 1 mg/kg dose
Experimental: as §4, §5, §6

| Molecule | Liver editing, dose response (murine TTR) | Editing of TTR in livers (HuTTR V30M locus; 8 weeks post treatment) [%] | Share of editing events that were insertions (HuTTR V30M locus; remainder deletions) [%] | TTR protein levels in CSF (human TTR protein) | Knockdown of TTR plasma levels (human TTR protein; p<0.001) | Reduction in TTR staining across the treated tissues [1] [%] |
| --- | --- | --- | --- | --- | --- | --- |
| G000502: TTR Cyno specific sgRNA modified sequence, SEQ ID No. 114; guide sequence of CR000689; cross homologous between mouse and cyno (nucleic acid) guide: mA*mC*mA*rCrArArArUrArCrCrArGrUrCrCrArGrCrGrGrUrUrUrUrArGrAmGmCmUmAmGmAmAmAmUmAmGmCrArArGrUrUrArArArArUrArArGrGrCrUrArGrUrCrCrGrUrUrArUrCrAmAmCmUmUmGmAmAmAmAmAmGmUmGmGmCmAmCmCmGmAmGmUmCmGmGmUmGmCmU*mU*mU*mU | A dose response for both editing and serum TTR levels was evident | – | – | – | – | – |
| G000481: TTR sgRNA modified sequence, Human, SEQ ID No. 88; guide sequence of CR003345 (nucleic acid) guide: mU*mC*mU*rArGrArArCrUrUrUrGrArCrCrArUrCrArGrGrUrUrUrUrArGrAmGmCmUmAmGmAmAmAmUmAmGmCrArArGrUrUrArArArArUrArArGrGrCrUrArGrUrCrCrGrUrUrArUrCrAmAmCmUmUmGmAmAmAmAmAmGmUmGmGmCmAmCmCmGmAmGmUmCmGmGmUmGmCmU*mU*mU*mU | – | 49.4 | 96.8 | not in CSF | greater than 99% | ≥ 85 |

From patent US11795460B2, “Compositions and methods for TTR gene editing and treating ATTR amyloidosis” (Intellia Therapeutics, Inc., priority 2017, dated 2023)
